According to the Immune Epitope Database (IEDB):

Experiments:
HLA-B*54:01 = assay: IEDB peptide-MHC binding, purified MHC/competitive/radioactivity; filed as Kd, often an IC50 or EC50 that approximates it; ≥ and ≤ were set here for values at or beyond the usual limits of such assays
HLA-B*07:02 [1] = assay: as above
HLA-B*53:01 = assay: as above
HLA-B*51:01 = assay: as above
HLA-B*35:01 = assay: as above
HLA-A*30:02 = assay: as above; conditions: source organism: Dengue virus 3 Martinique/1243/1999
HLA-B*58:01 = assay: IEDB peptide-MHC binding, purified MHC/direct/fluorescence; filed as Kd, often an IC50 or EC50 that approximates it; ≥ and ≤ were set here for values at or beyond the usual limits of such assays
HLA-A*01:01 = assay: as above
HLA-A*03:01 = assay: as above
HLA-B*27:05 = assay: as above
HLA-B*07:02 [2] = assay: as above
HLA-A*11:01 = assay: as above
HLA-B*44:02 = assay: as above
HLA-B*40:01 = assay: as above
HLA-B*15:01 = assay: as above
HLA-A*69:01 = assay: as above
HLA-A*31:01 = assay: as above
HLA-A*02:01 = assay: as above; conditions: source organism: dengue virus type 3
HLA-A*24:03 = assay: as above
HLA-A*26:01 = assay: as above; conditions: source organism: Giardia lamblia ATCC 50803
HLA-B*08:01 = assay: as above; conditions: source organism: Giardia lamblia ATCC 50803
[3] = source organism: SARS coronavirus Tor2
[4] = source organism: Vaccinia virus WR
[5] = source organism: dengue virus type 3
[6] = source organism: Giardia lamblia ATCC 50803
[7] = source organism: Triticum aestivum

FPQAAPHGVV
Kd (HLA-B*54:01; [3]): 15.8 nM
Kd (HLA-B*07:02 [1]; [3]): 82.2 nM
Kd (HLA-B*53:01; [3]): 4140 nM
Kd (HLA-B*51:01; [3]): 159 nM
Kd (HLA-B*35:01; [3]): 1680 nM

DPSERVFKKI
Kd (HLA-B*54:01; [4]): ≥ 43300 nM
Kd (HLA-B*07:02 [1]; [4]): ≥ 69600 nM
Kd (HLA-B*53:01; [4]): 18200 nM
Kd (HLA-B*51:01; [4]): ≥ 46700 nM
Kd (HLA-B*35:01; [4]): ≥ 69900 nM

TSEHGGRAY
Kd (HLA-A*30:02): ≥ 67200 nM
Kd (HLA-B*58:01; [5]): ≥ 20000 nM
Kd (HLA-A*01:01; [5]): 337 nM
Kd (HLA-A*03:01; [5]): ≥ 20000 nM
Kd (HLA-B*27:05; [5]): ≥ 20000 nM
Kd (HLA-B*07:02 [2]; [5]): ≥ 20000 nM
Kd (HLA-A*11:01; [5]): ≥ 20000 nM
Kd (HLA-B*44:02; [5]): ≥ 20000 nM
Kd (HLA-B*40:01; [5]): ≥ 20000 nM
Kd (HLA-B*15:01; [5]): 248 nM
Kd (HLA-A*69:01; [5]): ≥ 20000 nM
Kd (HLA-A*31:01; [5]): ≥ 20000 nM
Kd (HLA-A*02:01): ≥ 20000 nM

PYATGPLVF
Kd (HLA-A*24:03; source organism: Mycobacterium tuberculosis): 382 nM

FPGDKTSYWV
Kd (HLA-B*54:01; [4]): 5.36 nM
Kd (HLA-B*07:02 [1]; [4]): 261 nM
Kd (HLA-B*53:01; [4]): 14.4 nM
Kd (HLA-B*51:01; [4]): 50.1 nM
Kd (HLA-B*35:01; [4]): 88.8 nM

DIIRAHPWF
Kd (HLA-B*58:01; [6]): ≥ 20000 nM
Kd (HLA-A*26:01): 286 nM
Kd (HLA-A*01:01; [6]): ≥ 20000 nM
Kd (HLA-A*03:01; [6]): 8160 nM
Kd (HLA-B*27:05; [6]): ≥ 20000 nM
Kd (HLA-B*07:02 [2]; [6]): ≥ 20000 nM
Kd (HLA-A*11:01; [6]): ≥ 20000 nM
Kd (HLA-B*08:01): 9920 nM
Kd (HLA-B*44:02; [6]): ≥ 20000 nM
Kd (HLA-B*40:01; [6]): ≥ 20000 nM
Kd (HLA-B*15:01; [6]): 16600 nM
Kd (HLA-A*69:01; [6]): ≥ 20000 nM
Kd (HLA-A*31:01; [6]): ≥ 20000 nM

WPVTLACFVL
Kd (HLA-B*54:01; [3]): 3560 nM
Kd (HLA-B*07:02 [1]; [3]): 956 nM
Kd (HLA-B*53:01; [3]): 73.8 nM
Kd (HLA-B*51:01; [3]): 9.11 nM
Kd (HLA-B*35:01; [3]): 71.5 nM

IYKNKISDF
Kd (HLA-A*24:03; source organism: Cryptosporidium parvum): 130 nM

KPRSQMETDF
Kd (HLA-B*54:01; [3]): ≥ 49300 nM
Kd (HLA-B*07:02 [1]; [3]): 78.8 nM
Kd (HLA-B*53:01; [3]): ≥ 53700 nM
Kd (HLA-B*51:01; [3]): 2500 nM
Kd (HLA-B*35:01; [3]): 19500 nM

FPGQQQPF
Kd (HLA-B*54:01; [7]): ≥ 87700 nM
Kd (HLA-B*07:02 [1]; [7]): ≥ 37400 nM
Kd (HLA-B*53:01; [7]): ≥ 87700 nM
Kd (HLA-B*51:01; [7]): ≥ 30600 nM
Kd (HLA-B*35:01; [7]): ≥ 87800 nM

SYLQAIGIL
Kd (HLA-A*24:03; source organism: Listeria monocytogenes): 1.1 nM

DPMVIENGI
Kd (HLA-B*54:01; [4]): 485 nM
Kd (HLA-B*07:02 [1]; [4]): 388 nM
Kd (HLA-B*53:01; [4]): 3860 nM
Kd (HLA-B*51:01; [4]): 34.6 nM
Kd (HLA-B*35:01; [4]): 2360 nM

NPLFHGGEPI
Kd (HLA-B*54:01; [4]): 382 nM
Kd (HLA-B*07:02 [1]; [4]): 8.02 nM
Kd (HLA-B*53:01; [4]): 312 nM
Kd (HLA-B*51:01; [4]): 4460 nM
Kd (HLA-B*35:01; [4]): 3550 nM
